This note sets out measurements from patent US20210261667A1.

Experiment [1] deals with PD-L1 expressed on the cell surface (HEK293F transiently transfected; A375/PD-L1 stably transfected cells) (UniProt Q9NZQ7). In words: flow cytometry blocking assay on A375/PD-L1 cells; blocked ligand hPD-1(ECD)-Fc-Biotin, SA-PE detection [column 0.005 ug/ml]. A general note: Flow cytometry measures light scatter and fluorescence of single cells or particles in a stream.
For experiment [2] the target is unchanged. Briefly: flow cytometry blocking assay on A375/PD-L1 cells; blocked ligand hPD-1(ECD)-Fc-Biotin, SA-PE detection [column 0.05 ug/ml].
For experiment [3] the target is unchanged. Briefly: flow cytometry blocking assay on A375/PD-L1 cells; blocked ligand hPD-1(ECD)-Fc-Biotin, SA-PE detection [column 0.5 ug/ml].
The target is the same in experiment [4]. Briefly: flow cytometry blocking assay on A375/PD-L1 cells; blocked ligand hPD-1(ECD)-Fc-Biotin, SA-PE detection, MFI [table, row 1].
For experiment [5] the target is unchanged. In words: flow cytometry blocking assay on HEK293F cells transiently transfected with PD-L1; blocked ligand hPD-1 biotin, SA-PE detection.
For experiment [6] the target is unchanged. Briefly: flow cytometry blocking assay on A375/PD-L1 cells; blocked ligand hPD-1(ECD)-Fc-Biotin, SA-PE detection; no concentration printed for this panel, which stands above the 0.5 ug/ml column.

PD-L1 expressed on the cell surface (HEK293F transiently transfected; A375/PD-L1 stably transfected cells), sequence (Q9NZQ7 19-290 limits assumed): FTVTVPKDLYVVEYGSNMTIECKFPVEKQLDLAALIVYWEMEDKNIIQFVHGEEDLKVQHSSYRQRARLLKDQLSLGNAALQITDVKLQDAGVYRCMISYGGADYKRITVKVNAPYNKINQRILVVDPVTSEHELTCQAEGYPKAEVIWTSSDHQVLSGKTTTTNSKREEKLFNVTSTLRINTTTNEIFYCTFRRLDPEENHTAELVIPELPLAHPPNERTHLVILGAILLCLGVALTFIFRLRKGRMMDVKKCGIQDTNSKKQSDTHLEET

As to Tecentriq (antibody), in experiment [1], the Q2 % (cells still positive for hPD-1(ECD)-Fc-Biotin) at 0.005 ug/ml antibody amounted to 86%. The substance further had a Q2 % (cells still positive for hPD-1(ECD)-Fc-Biotin) at 0.05 ug/ml antibody in experiment [2] of 85.3%. This substance also displayed a Q2 % (cells still positive for hPD-1(ECD)-Fc-Biotin) at 0.5 ug/ml antibody in experiment [3] of 11.8%. The IC50 in experiment [4] turned out to be 0.456 µg/mL.

Substance negative control antibody had a Q2 % (cells still positive for PD-1-biotin with the antibody present) in experiment [5] of 86.2%. In experiment [6], this substance yielded a Q2 % (cells still positive for hPD-1(ECD)-Fc-Biotin with the antibody present) of 85.9%.

For orientation: IC50 means the concentration at which inhibition is half-maximal.
